Patent US8487082B2, “Synthetic scFv analogue to the 6313/G2 (anti angiotensin II type 1 receptor) monoclonal antibody variable regions” (Queen Mary & Westfield College, priority 2008, dated 2013)
Entries after “also recorded” stand apart in the source; their conditions may differ.

Legend:
[1] = Body weight and mortality in xenograft assay; format: in vivo, mice; settings: for body weight: MCF7 xenograft mice
Description: Mice were injected s.c. on the right-flank, with 150 μl sterile PBS containing 7.5×10^6 MCF-7 cells. Tumour cells were allowed to grow for 4 weeks without hormone support, thereafter mice received weekly s.c. injections of 17β-oestradiol valerate (0.1 mg/Kg body weight), in sesame oil (Kasukabe et al., Breast Cancer Res. 7(6) R1097-110 (2005)) for a further 8 weeks. Animals were monitored daily for general health, and body weights were measured twice-weekly. Tumour size was measured 3 times per week with slide callipers, and volumes were calculated as (L×W^2)/2, where L and W are the major and minor diameters, respectively. Once tumour volumes reached 150 to 200 mm^3, mice were randomized to treatment and control groups of 8 to 10 per group. Mice were treated by subcutaneous injections of R6313/G2 in sterile PBS (0.1 ml) at doses of 0.4 mg/kg (13 nmol/kg), 0.8 mg/kg (27 nmol/Kg), and 1.36 mg/kg (45.3 nmol/kg) body weight, twice per day for seven days. Control mice received sterile PBS. At the termination of the study, animals were sacrificed by cervical dislocation. Relative body weights (%) were calculated as (Wt/Wi)×100, where Wt is the body weight at any given time and Wi is the body weight at treatment initiation. Net tumour volume was calculated as Vt-Vi, where Vt is the tumour volume at any given time and Vi is the tumour volume at the start of treatment, and expressed as a percentage of Vi.

[2] = tested on: T-47D breast cancer cells; assay: Fluorimetric invasion assay (QCM cell invasion, ECM); format: cell-based; settings: for T-47D cell invasion through ECM: scFv alone, 50 and 250 nmol/L, 24 h
Description: The method used is QCM™ Cell invasion assay (Chemicon Cat No. ECM555). This uses fluorimetric detection of cells which have broken through a reconstituted basement membrane matrix proteins (ECM) derived from the Engelbreth-Holm-Swam (EHS) mouse tumour (Repesh LA (1989) Invasion Metastasis 9: 192-208)
ECM-coated inserts were placed in 96-well plates and 100 μl of prewarmed serum-free medium added to the interior of the inserts in order to hydrate the ECM layer over 1-2 h at room temperature. Media was removed and 150 μl of serum free medium added to the wells of the 96-well plate housing the inserts. 100 μl of medium containing 10^5 cells/per insert was then introduced. The plate was covered and incubated at 37 C in a 5% CO2/95% air humidified incubator for 24 h. After removing cells from inside the insert and rinsing with PBS, the insert was replaced into a 96-well plate containing Cell Detachment Solution and incubated at 37 C for 30 min. Cells that had invaded through the ECM to the bottom of the insert were, in this way, dislodged from the insert for subsequent lysis and measurement of fluorescence using a 480/520 filter set in a Fluostar Optima fluorimeter (BMG Labtech), according to manufacturer's instructions.

[3] = target: biotinylated peptide antigen (AT1 receptor) (Rattus norvegicus, UniProt P25095); assay: Quartz crystal microbalance binding (Attana 100); settings: 9 μg/ml, 100 second injection period; listed as 12D
Description: Data were obtained comparing the characteristics of binding of the scFv variants and IgM to immobilised peptide antigen using the Attana 100 Quartz Crystal Microbalance. This involved use of a streptavidin (0.1 mg/ml)-coated biotin “chip” (gold-plated quartz crystal in an Attana 100 Biosensor (Quartz crystal microbalance (QCM)) (Attana AB, Stockholm, Sweden). Peptide antigen corresponding to that sequence used to raise the original murine hybridoma, biotinylated at the C-terminus, was then run across the chip at a concentration of 4 μg/ml to create a binding target for scFvs and IgM that were subsequently run across the surface of the QCM chip. Attester software (Attana, Sweden) was used to monitor changes in resonance frequency of the QCM chip in response to binding of a test antibody to the antigen. The magnitude of deflection in Hz over the period of sample injection of 100 s in Hz/second was determined for each antibody at a concentration of 9 μg/ml. The rate at which the antibody was then released from the QCM chip was also measured in Hz/second from the straight-line portion of the biosensor trace as antibody gradually departed from the chip and as the resonance frequency of the chip decreased. Running buffer was PBS containing 0.005% Tween 20 (PBST) and this was also used to make antibody dilutions to give a final protein concentration of 9 μg/ml in each case. The Attana 100 was set up with a 50 μl injection loop and was running with a constant pump speed of 20 μl/min. Samples and PBST buffer controls were injected over 100 seconds giving a sample volume across the chip of 33 μl. 100 mM (6.6 μl volume) phosphoric acid solution was used to regenerate the strepavidin-antigen surface between individual experimental sample runs.

B1: R6313/G2: murine scFv analogue of the 6313/G2 anti-AT1 receptor monoclonal antibody variable domains, SEQ ID NO:15 (protein)
scFv: YAAQPAMAQVKLQQSGPELEKPGASVKISCKASGYSFTGYNMNWVKQSNGKSLEWIGNIDPYYGGTTYNQKFKGKATLTVDKSSSTAYMQLKSLTSEDSAVYYCAREVDYWGQGTTVTVSSGGGGSGGGGSGGGGSDIELTQSPASLAVSLGQRATISYRASKSVSTSGYSYMHWNQQKPGQPPRLLIYLVSNLESGVPARFSGSGSGTDFTLNIHPVEEEDAATYYCQHIRELTRSEGTKLEIKRAAAGAPVPY
modifications: 12D
For B1, the “other effects in xenograft mice” value ([1]; 13 nmol/kg) was “without other effects”, the mortality ([1]; 0.4 mg/kg twice per day, during the treatment period) was “no mortality” and the mortality ([1]; 0.8 mg/kg group, by day 8, n=8) was “four died by day 8”. The mortality ([1]; 0.8 mg/kg twice per day, during the treatment period) was “no mortality”, the mortality ([1]; 1.36 mg/kg group, by day 8) was “all died by day 8” and the body weight ([1]; 0.4 mg/kg (13 nmol/kg) twice per day) was “no weight loss”. The body weight ([1]; 0.8 mg/kg (27 nmol/kg) twice per day) was “no weight loss”, the body weight ([1]; 1.36 mg/kg (45.3 nmol/kg) twice per day) was “significantly reduced” and the “inhibition of cell invasion” value ([2]; 250 nmol/L R6313/G2 with angiotensin II 100 nmol/L, 24 hour assay period) was “up to 25%”. For the same molecule, the “effect on T-47D cell invasion in the presence of angiotensin II” value ([2]; 250 nmol/L scFv, angiotensin II 100 nmol/L) was “significantly more pronounced”, the “T-47D cell invasion through ECM” value [2] was “inhibits T-47D cell invasion” and the “T-47D cell invasion through ECM” value ([2]; listed as R6313/G2 clone12D) was “significantly inhibits T-47D cell invasion”. The “change in resonance frequency (apparent on-rate, Hz/second) compared with IgM” value [3] was “significantly greater increases in resonance frequency; also recorded: significantly greater changes in resonance frequency”.
